Molecular target: the molecule itself
Assay: SEC; Biogel P-100 column; CLA incubated 5 h at room temperature at pH 7, 5 or 4 (10 mM Na-phosphate or Na-acetate, 150 mM NaCl); mass from a standard curve run at pH 7

B1: Curcuma longa rhizome lectin (natural protein)
chain: KNILLSGETLETGKFLTEGEFTFLMQSDCNLVLYDLNRPIWSSGTIHKGSGCILKMQNDGNLVIYNVTNNAIWASNTGGQQGNYILILQRDRNVVIYSQPIFNTDTAVSKLNSSNLGETGNGGNIAQPENKIAIGASNGHNANILPSGETLPTGKLTLPSEVATETGK
modifications: glycosylated (glycoprotein with about 5.2% covalently bound sugar); sites not stated
stoichiometry N: 2

Source: publication PMC4139268, “Thermal, Chemical and pH Induced Unfolding of Turmeric Root Lectin: Modes of Denaturation” (PLoS ONE, 2014)
